Each block holds one binder with its values, some of them ahead of it. Square brackets hold non-standard residues; d marks the D form. Primed or numbered codes have the meaning given here. Ends that are not written are not given here. * marks the point of attachment. D‑Lys(pentyne) = D-Lys(pentyne) amide, alkyne-bearing D-lysine, C#CCCC(=O)NCCCC[C@@H](N*)C(N)=O; S3(3) = biotin-PEG2-acylated azidolysine clicked to D-Pra carrying 5-azido-pentanoic acid; Lys(N3) = [N-]=[N+]=NCCCC[C@H](N)C(=O)O; S3″ = biotin-PEG2 linker with azide; dPra = C#CC[C@@H](N)C(=O)O
How the values were obtained:
[1] = molecular target: Active Akt2 (with N terminal His6 tag) (human) (UniProt P31751); test: single-component immunoassay (ELISA, mono-L as detection agent, FIG. 23A)
[2] = molecular target: Active Akt2 (with N terminal His6 tag) (human) (UniProt P31751); test: not stated there (summary of the ELISA and SPR results)
[3] = molecular target: Active Akt2 (with N terminal His6 tag) (human) (UniProt P31751); test: single component ELISA, N-tL as surface-localized capture agent (FIG. 23A)
[4] = molecular target: Active Akt2 (with N terminal His6 tag) (human) (UniProt P31751); test: SPR, Biacore T100, N-tL immobilised on SA chip, Akt2 protein as analyte, 1:1 model, 10° C.
[5] = molecular target: Active Akt2 (with N terminal His6 tag) (human) (UniProt P31751); test: single-component ELISA (bi-L as detection agent, FIG. 23A)
[6] = molecular target: Active Akt2 (with N terminal His6 tag) (human) (UniProt P31751); test: cell-based or functional assay
[7] = molecular target: Active Akt1 (with N terminal His6 tag) (human) (UniProt P31749); test: ELISA, C-tL immobilised on streptavidin plate, 25 nM His6 tagged full protein, anti His6 detection, triplicate
Active Akt1 (with N terminal His6 tag) (human), sequence (P31749 other isoform, or with tags, fused parts or gaps): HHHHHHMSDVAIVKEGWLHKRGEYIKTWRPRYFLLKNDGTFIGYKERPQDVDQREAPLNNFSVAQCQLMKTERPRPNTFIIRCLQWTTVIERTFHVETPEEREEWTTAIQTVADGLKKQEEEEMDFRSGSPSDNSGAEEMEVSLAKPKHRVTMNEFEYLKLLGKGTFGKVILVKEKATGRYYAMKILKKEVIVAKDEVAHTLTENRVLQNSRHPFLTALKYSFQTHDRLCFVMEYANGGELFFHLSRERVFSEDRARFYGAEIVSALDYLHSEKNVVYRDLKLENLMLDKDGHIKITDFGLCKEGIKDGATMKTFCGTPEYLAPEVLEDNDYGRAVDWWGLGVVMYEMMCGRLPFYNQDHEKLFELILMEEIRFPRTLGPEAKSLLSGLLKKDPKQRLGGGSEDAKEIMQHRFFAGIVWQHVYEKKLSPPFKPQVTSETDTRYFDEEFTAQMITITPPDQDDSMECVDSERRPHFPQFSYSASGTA

[8] = molecular target: Active Akt3 (with N terminal His6 tag) (human) (UniProt Q9Y243); test: as above
Active Akt3 (with N terminal His6 tag) (human), sequence (Q9Y243 other isoform, or with tags, fused parts or gaps): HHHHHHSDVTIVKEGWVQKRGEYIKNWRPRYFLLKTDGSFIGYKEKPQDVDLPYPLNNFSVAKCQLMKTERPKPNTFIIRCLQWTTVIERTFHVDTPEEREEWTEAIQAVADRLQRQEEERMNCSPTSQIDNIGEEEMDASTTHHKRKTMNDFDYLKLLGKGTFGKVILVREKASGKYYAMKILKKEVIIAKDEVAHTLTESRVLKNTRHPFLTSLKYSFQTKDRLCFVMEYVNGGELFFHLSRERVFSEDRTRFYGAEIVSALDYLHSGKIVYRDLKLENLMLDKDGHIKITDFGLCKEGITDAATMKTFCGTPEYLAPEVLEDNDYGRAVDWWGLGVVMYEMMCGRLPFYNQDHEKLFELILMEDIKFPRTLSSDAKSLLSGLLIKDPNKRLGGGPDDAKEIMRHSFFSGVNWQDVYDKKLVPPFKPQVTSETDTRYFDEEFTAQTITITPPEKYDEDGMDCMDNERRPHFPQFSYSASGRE

[9] = molecular target: Inactive Akt2 (with N terminal His6 tag) (human) (UniProt P31751); test: ELISA, immobilised C-tL, active against inactive Akt2 (FIG. 23E)
[10] = molecular target: Active Akt2 (with N terminal His6 tag) (human) (UniProt P31751); test: single component ELISA, C-tL as surface-localized capture agent (FIG. 23A)
N-tL = molecular target: T1, N-tL (not fully specified)
T1 chain 1: WKVKL
T1 chain 2: HNGYF
T1 chain 3: XYYRFG

B4: C-tL (peptide)
peptide 1: Ac-[Lys(N3)][dH][dD]GG[dF]-NH2
peptide 2: {S3″}-[dW][dK][dV][dK]-{D‑Lys(pentyne)-NH2}
peptide 3: [dH][dN]G[dY][dF][dPra]
modifications: not fully specified (bridges); also: branched three-arm conjugate, triazole at chain A 1 to a chain's C-terminus, triazole to a chain's N/C-terminus via S3
Akt2 kinase activity: phosphorylation of the GSK-3α/β substrate, Western blot, EC50 [6]: 4000 nM
selectivity ratio (Akt2 over Akt1) (fold (ratio, reference full-length Akt2)) [7]: 5
selectivity ratio (Akt2 over Akt3) (fold (ratio, reference full-length Akt2)) [8]: 10
selectivity ratio (p-Akt2 over Akt2) (fold (ratio, reference p-Akt2)) [9]: 5
EC50 [10]: 125 nM

B5: Active Akt2 (with N terminal His6 tag) (protein)
chain: HHHHHHMNEVSVIKEGWLHKRGEYIKTWRPRYFLLKSDGSFIGYKERPEAPDQTLPPLNNFSVAECQLMKTERPRPNTFVIRCLQWTTVIERTFHVDSPDEREEWMRAIQMVANSLKQRAPGEDPMDYKCGSPSDSSTTEEMEVAVSKARAKVTMNDFDYLKLLGKGTFGKVILVREKATGRYYAMKILRKEVIIAKDEVAHTVTESRVLQNTRHPFLTALKYAFQTHDRLCFVMEYANGGELFFHLSRERVFTEERARFYGAEIVSALEYLHSRDVVYRDIKLENLMLDKDGHIKITDFGLCKEGISDGATMKTFCGTPEYLAPEVLEDNDYGRAVDWWGLGVVMYEMMCGRLPFYNQDHERLFELILMEEIRFPRTLSPEAKSLLAGLLKKDPKQRLGGGPSDAKEVMEHRFFLSINWQDVVQKKLLPPFKPQVTSEVDTRYFDDEFTAQSITITPPDRYDSLGLLELDQRTHFPQFSYSASIRE
Akt2 kinase activity: phosphorylation of the GSK-3α/β substrate, Western blot (N-tL): The N-tL was found to activate Akt2

Further lines, results first:

affinity [1]: 3 µM
B1: mono-L (peptide)
peptide: [dPra][dW][dK][dV][dK][dL]-NH2
modifications: not fully specified (residue 1, N-terminus); printed as (D-Pra)-wkvkl; also: D-Pra side chain clicked (triazole) to azide of S1 (azidolysine-PEG2-biotin), biotin label

affinity [2]: 20 nM
EC50 [3]: 19 nM
Kd [4]: 25 nM
B2: N-tL (peptide)
peptide 1: [dW][dK][dV][dK][dL]
peptide 2: [dH][dN]G[dY][dF]
peptide 3: Ac-[dPra][dY][dY][dR][dF]G-NH2
modifications: not fully specified (bridges)

affinity [5]: 1 µM
B3: bi-L (peptide)
peptide 1: {S3(3)}-[dW][dK][dV][dK][dL]-NH2
peptide 2: [dH][dN]G[dY][dF][dPra]
modifications: triazole (positions not given here); also: branched two-arm conjugate, triazole to a chain's N/C-terminus via S3

Source: US20230019342A1
